From publication PMC10283433 come the findings set out here.

The target in test [1] is anti-FX antibodies with the V1 or V2 mutation pair. The test can be described thus: SPR.
The target in test [2] is NXT007 in the dKiHv14 format (anti-FIXa/FX bispecific humanized IgG4, kappa/lambda) (human). The experiment in a line: SPR. (In general: In SPR one partner is held on a chip, and binding of the other changes the refractive index at the surface.)

As for “human FX (Enzyme Research Laboratories, HFX 1010) (natural protein)”, the fold increase in KD against the parent in test [1] fell in the range of 1.3 to 1.4 times.
Take “recombinant human FcRn (from UniProt P55899 24-365) (receptor)”: the FcRn binding ability after acid treatment, relative to the initial sample in test [2] is 80%.
